Results as given in patent US11780910 (dated 2023).
Numbering of substitutions follows the chain as printed.

B1: tmAb2 (antibody, V domains shown)
VH: EVQLLESGGGLVQPGGSLRLSCAASDFNFRSYWMTWVRQAPGKGLEWVSSISSHSTYIYYADSVKGRFTISRDNSKNTLYLQMNSLRAEDTATYYCAREGWYDNWFDPWGQGTLVTVSS
VL: EIVLTQSPGTLSLSPGERATLSCRASQNIRSPYLAWYQQKPGQAPRLLIYGVSSRAAGIPDRFSGSGSGTDFTLTISRLEPEDFAVYYCQQYDDHPYTFGQGTKLEIK
B2: tmAb1 (antibody, V domains shown)
VH: B1 VH with D26G
VL: B1 VL
B3: tmAb4 (antibody, V domains shown)
VH: B1 VH with D26G, R30E, F106N
VL: B1 VL
B4: tmAb3 (antibody, V domains shown)
VH: B1 VH with D26G, R30E
VL: B1 VL

Experiments:
human ANGPTL3 17-220 [1] = target: T1, human ANGPTL3 17-220 (human); assay: SPR, pH 6.0, 37C
T1 chain: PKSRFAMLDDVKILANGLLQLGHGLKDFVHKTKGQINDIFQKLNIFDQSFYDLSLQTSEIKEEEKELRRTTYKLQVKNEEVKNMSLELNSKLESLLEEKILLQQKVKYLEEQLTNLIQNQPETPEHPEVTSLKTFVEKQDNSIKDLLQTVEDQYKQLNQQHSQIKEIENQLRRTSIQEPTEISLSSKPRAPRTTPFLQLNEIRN

human ANGPTL3 17-220 [2] = target: T1, human ANGPTL3 17-220; assay: SPR, pH 7.4, 37C
human ANGPTL3 17-220 [3] = target: T1, human ANGPTL3 17-220; assay: SPR, pH 6.0, 37C

| Binder | binding result (human ANGPTL3 17-220 [1]) | Kd (human ANGPTL3 17-220 [2]) | Kd (human ANGPTL3 17-220 [3]) |
| --- | --- | --- | --- |
| B1 | no binding | 43 nM |  |
| B2 |  | 21 nM | 2000 nM |
| B3 | no binding | 56 nM |  |
| B4 |  | 18 nM | 3000 nM |
